# Laboratory results reported in patent US8846873B2, “Antibodies directed to GPNMB and uses thereof” (Celldex Therapeutics, Inc., priority 2004, dated 2014).
# “Also recorded” adds a separate entry of the source.
# B1: Mab1.15.1 (protein, listed as Homo sapiens)
# chain: QVQLQESGPGLVKPSQTLSLTCTVSGGSISSFNYYWSWIRHHPGKGLEWIGYIYYSGSTYSNPSLKSRVTISVDTSKNQFSLTLSSVTAADTAVYYCARGYNWNYFDYWGQGTLVTVSSA
# Legend:
# SK-Mel-2 cells [1] = assay: ADCC assay with human PBMC (DELFIA EuTDA cytotoxicity); format: cell-based; details: human PBMC 30 to 100 fold; 2, 5, 10 μg/200 μl; listed as CR011 IgG2
# Description: We next examined whether the CR0111gG1 mAb could induce ADCC in SK-MEL-2 cells in culture in the presence of human PBMC. Human PBMC were isolated from whole blood using a Ficoll-Plaque. Briefly, in a 50 mL tube, 15 mL of PBS was added to 20 mL of whole blood which was underlayed with 10 mL Ficoll-Plaque and the tube was centrifuged at 2000 RPM. Mononuclear cells were collected from the interface and washed 3 times with PBS. The ADCC assay was carried out in a 96 well plate using a fluorescence assay for cytolysis from Perkin-Elmer (DELFIA EuTDA Cytotoxic assay). The procedure is based on loading target cells with a fluorescence enhancing ligand (BATDA, bis (acetoxymethyl) terpyridine—dicarboxylate). The hydrophic ligand penetrates the membrane quickly. Within the cell the esterbonds are hydrolyzed to form a hydrophilic ligand (TDA, terpyridine—dicarboxylic acid) which can no longer pass through the membrane. After cytolysis the ligand is released and introduced to the Europium solution. The europium and the ligand form a highly fluorescent and stable chelate (EuTDA). Fluorescence intensity are recorded using excitation and emission wavelengths as λex=340 nm and λem=613 nm, respectively.
# SK-Mel-2 cells [2] = assay: Flow cytometry of CR011 binding to cell surface CG56972/GPNMB; parameters: species or system human; details: SK-MEL-2, positive control
# Description: (§1) Flow Cytometry: Quantitative analysis of GPNMB expression on the cell surface of cell lines was determined by flow cytometry. […] Cells were fixed in 1% paraformaldehyde/PBS and examined on a Becton Dickinson FACSCalibur flow cytometer. Data analysis was performed with Becton Dickinson Cell Quest software version 3.3 and the geometric mean fluorescence intensity ratio (GMR) was determined for each cell type.
# as §1, with “CG56972” for “GPNMB”, “the” for “the cell”, “cytometry (FACS).” for “cytometry.”
# TK-10 cells [3] = assay: Apoptosis analysis (Annexin V-FITC / propidium iodide); format: cell-based, human; details: TK-10, 48 hour, 1000 ng/mL
# Description: (§2) Briefly, cells were pulsed at the indicated times with 30 μM of bromodeoxyuridine (BrdU, Sigma) for 30 min, harvested, fixed and permeabilized in methanol. Nascent DNA synthesis was detected by anti-bromodeoxyuridine-FITC (BD Biosciences, San Jose, Calif.) staining. Total DNA content was detected using propidium iodide (PI, Sigma). For apoptosis analysis, cells were treated as above and labeled with Annexin V-FITC followed by propidium iodide exclusion using the Annexin V-FITC Apoptosis Detection kit I (BD PharMingen, San Diego, Calif.) according to the manufacturer's protocols. Flow cytometry (as described in the previous Example) was used to assay both cell cycle and apoptosis studies.
# (§3) To investigate this possibility, analysis of apoptosis using Annexin-V surface binding and loss of propidium iodide (PI) exclusion was performed.
# SK-Mel-2 cells [4] = assay: as above; format: cell-based, human; details: SK-Mel-2, 48 hour, 1000 ng/mL
# Description: as §2, §3
# melanoma cell lines = assay: Clonogenic assay with 1.15.1-AE; format: cell-based, human; details: various concentrations
# Description: Melanoma cell lines were plated onto flat bottom 96-well tissue culture plates (Becton Dickinson, Franklin Lakes, N.J., USA). On day 2 or when cells reach ˜25% confluency, various concentrations of unconjugated and Auristatin E-conjugated 1.15.1 were added to cells. MAb 2.6.2-AE was also used as a conjugated isotype control in this study. On day 5, the cells were trypsinized, transferred to 6-well tissue culture plates and incubated at 37° C. Plates were examined daily. On days 8-10, all plates were Giemsa stained and colonies on the plates were counted.
# CG56972-expressing cells = assay: Internalization of cell surface bound antibodies (flow cytometry); format: cell-based; details: incubation with CG56972-expressing cells
# Description: Internalization of cell surface bound antibodies was assessed by a modified flow cytometry procedure. […] After washing cells, incubation was shifted to 37° C. for 1 hr to allow internalization of bound antibodies. Cells that remained on ice (total surface bound) or that were incubated at 37° C. […] Labeled cells were analyzed by flow cytometry as described above. The percentage of antibody internalized was determined using the GMRs and the following formula: Percent internalized=Total surface bound (4° C.)−Total surface bound (37° C.)/Total surface bound (4° C.)×100
# U-118-MG = assay: Flow cytometry (FACS) of CR011 surface staining; format: binding, human
# Description: as §1, with “CG56972” for “GPNMB”, “the” for “the cell”, “cytometry (FACS).” for “cytometry.”
# SNB-78 = assay: Flow cytometry (FACS) of CR011 surface staining; format: binding, human
# Description: as §1, with “CG56972” for “GPNMB”, “the” for “the cell”, “cytometry (FACS).” for “cytometry.”
# SF-268 = assay: Flow cytometry (FACS) of CR011 surface staining; format: binding, human
# Description: as §1, with “CG56972” for “GPNMB”, “the” for “the cell”, “cytometry (FACS).” for “cytometry.”
# XF-498 = assay: Flow cytometry (FACS) of CR011 surface staining; format: binding, human
# Description: as §1, with “CG56972” for “GPNMB”, “the” for “the cell”, “cytometry (FACS).” for “cytometry.”
# SF-539 = assay: Flow cytometry (FACS) of CR011 surface staining; format: binding, human
# Description: as §1, with “CG56972” for “GPNMB”, “the” for “the cell”, “cytometry (FACS).” for “cytometry.”
# TK-10 cells [5] = assay: Cell cycle analysis (BrdU / propidium iodide flow cytometry); format: cell-based, human; details: TK-10, 24 hour, 1000 ng/mL
# Description: as §2
# (§4) DNA synthesis and cell cycle progression were determined by flow cytometry (Table 52).
# SK-Mel-2 cells [6] = assay: as above; format: cell-based, human; details: SK-Mel-2, 24 hour, 1000 ng/mL
# Description: as §2, §4
molecule,measurement,setting,value
B1,ADCC / cytolysis of SK-MEL-2 cells,SK-Mel-2 cells [1],do not cause ADCC; also recorded: did not show any cytolysis
same,cell surface staining,SK-Mel-2 cells [2],strong cell surface staining
same,% AnnV+/PI+ UR,TK-10 cells [3],0.34%
same,% AnnV+/PI− LR,TK-10 cells [3],0.55%
same,% AnnV−/PI+ UL,TK-10 cells [3],0.83%
same,% AnnV+/PI+ UR,SK-Mel-2 cells [4],0.45%
same,% AnnV+/PI− LR,SK-Mel-2 cells [4],4.74%
same,% AnnV−/PI+ UL,SK-Mel-2 cells [4],0.36%
same,effect on growth of all the melanoma cell lines tested,melanoma cell lines,no effect on growth
same,internalization,CG56972-expressing cells,internalized
same,surface staining above isotype control mAb background,U-118-MG,at least 1.5 fold
same,surface staining above isotype control mAb background,SNB-78,at least 1.5 fold
same,surface staining above control mAb background,SF-268,around 1.5 fold
same,surface staining above isotype control mAb background,XF-498,at least 1.5 fold
same,surface staining above isotype control mAb background,SF-539,at least 1.5 fold
same,% G1,TK-10 cells [5],42.0%
same,% G2/M,TK-10 cells [5],6.3%
same,% S-phase,TK-10 cells [5],39.8%
same,% Sub-G1,TK-10 cells [5],0.3%
same,% G1,SK-Mel-2 cells [6],63.6%
same,% G2/M,SK-Mel-2 cells [6],6.4%
same,% S-phase,SK-Mel-2 cells [6],25.2%
same,% Sub-G1,SK-Mel-2 cells [6],0.5%
